Substrate in this data set: N[C@@H](CCC(=O)N[C@@H](CSSC[C@H](N)C(=O)O)C(=O)NCC(=O)O)C(=O)O
Put plainly: purified protein, by the assay type. Set-up: GSSCys oxidoreductase assay, steady-state kinetics, coupled NADPH consumption at 340 nm, pH 8.0, 25 °C. Conditions: pH 8.0; 25.0 °C. How it is done:
Steady-state kinetics of wild-type and mutant ScGrx7 and HsGrx5^C122S in the GSSCys and [compound left out] assays were determined spectrophotometrically by monitoring the consumption of NADPH at 340 nm and 25 °C using a thermostated Jasco V-650 UV/vis spectrophotometer[11],[19],[25]. Fresh stock solutions of NADPH, GSH, GR, and GSSCys or [compound left out] were prepared in assay buffer containing 0.1 M Tris/HCl, 1 mM EDTA, pH 8.0 before each experiment. Both assays were performed with 0.1 mM NADPH and 1 U/ml ScGR. The following final protein concentrations were used for Y110F/H/A (5–150 nM), D144A/K (10 nM), E147A/K (10 nM), R153A/E (25–50 nM), ScGrx7^WP (20 nM), ScGrx7^loop (up to 1.4 µM), ScGrx7^WP+loop (up 2.6 µM), HsGrx5^C122S (up to 15 µM), HsGrx5^RR (up to 12 µM), HsGrx5^loop (up to 1.6 µM), and HsGrx5^RR+loop (up to 4.0 µM). For the GSSCys assays, GSH was varied between 50 µM and 1.5 mM at fixed GSSCys concentrations (25, 50, 100, and 150 µM). NADPH, GSH, and GR were mixed in assay buffer before Grx was added and a baseline was recorded for 30 s. All GSSCys assays were started by the addition of GSSCys. The absorbance of a reference cuvette containing all components but no Grx was measured in parallel and subtracted from the obtained Grx activity. For the [compound left out] assays, GSH was varied between 100 µM and 2.0 mM at fixed concentrations of [compound left out] (0.18, 0.37, 0.55, and 0.74 mM). NADPH, GSH, and [compound left out] were preincubated in assay buffer for 2 min before GR was added and a baseline was recorded for 30 s. All [compound left out] assays were started by the addition of enzyme. Kinetic data were analyzed in Excel and SigmaPlot 13 by nonlinear and linear regression according to Michaelis–Menten, Lineweaver–Burk, Eadie–Hofstee, and Hanes theory[11],[19],[25]. 13 Supplementary Figure 7 Supplementary Figure 7 | GSSCys assay steady-state kinetics of ScGrx7 wild-type enzyme and D144X mutants. (a) Michaelis-Menten plots of the GSH-dependent reaction velocity at different initial concentrations of GSSCys. […]

B1: ScGrx7 (Saccharomyces cerevisiae S288C) (protein)
chain: SVNESITTHHPDSLVTFDNSGNAPGTHQSVHDTVNTQDKEAEEVDKNSGDAEFDAAAEYNKIMEQSPMIVFSKTGCPYSKKLKALLTNSYTFSPSYYVVELDRHEHTKELQDQIEKVTGRRTVPNVIIGGTSRGGYTEIAELHKNDELLDSFKKWSDGAFTVKANSQSESA
notes: E. coli XL1-Blue, pQE30; N-terminal MRGS(H)6 tag
As usually defined, the Km is the concentration of substrate that gives half-maximal velocity. A word on the kcat: it is the maximal rate divided by the concentration of active sites. As a reminder, the kcat/Km is the turnover number divided by the Michaelis constant. In the case of B1, the Km was 155 ± 29.9 µM, the kcat was determined as 114 ± 13 s⁻¹ and the kcat/Km amounted to 735000 M⁻¹ s⁻¹.
